These results are taken from paper PMC4821807, “Estrogen receptor alpha somatic mutations Y537S and D538G confer breast cancer endocrine resistance by stabilizing the activating function-2 binding conformation” (eLife, 2016).

Data set [1] has as its target D538G estrogen receptor α ligand-binding domain (ERα amino acids 304–554), 6×His fusion, biotin-labelled at C417 (human) (UniProt P03372). The experiment in a line: FRET or BRET; time-resolved FRET, SRC titration, ER pre-saturated with 1 µM E2: SRC3-fluorescein titrated from 3.2×10^-7 to 3.2×10^-12 M into 1 nM biotinylated ERα LBD on 0.25 nM streptavidin-terbium. (BRET reads energy transfer from a luciferase to a nearby fluorophore.)

The target in data set [2] is Y537S estrogen receptor α ligand-binding domain (ERα amino acids 304–554), 6×His fusion, biotin-labelled at C417 (human) (UniProt P03372). The description is as above.
Data set [3] concerns the target wild type estrogen receptor α ligand-binding domain (ERα amino acids 304–554), 6×His fusion, biotin-labelled at C417 (human) (UniProt P03372). Described as above.
The target in data set [4] is D538G estrogen receptor α ligand-binding domain (ERα amino acids 304–554), 6×His fusion, biotin-labelled at C417 (human) (UniProt P03372). The experiment in a line: FRET or BRET; time-resolved FRET, SRC titration, no ligand (apo): SRC3-fluorescein titrated from 3.2×10^-7 to 3.2×10^-12 M into 1 nM biotinylated ERα LBD on 0.25 nM streptavidin-terbium; 96-well plates.
Data set [5] has as its target Y537S estrogen receptor α ligand-binding domain (ERα amino acids 304–554), 6×His fusion, biotin-labelled at C417 (human) (UniProt P03372). The description is as above.
Data set [6] has as its system Y537S mutant ERα. The arrangement: method as in Toy et al., 2013. The conditions noted are these: breast cancer cells, ref Toy et al., 2013; cited from earlier work.
Data set [7] deals with D538G mutant ERα. The arrangement: method as in Toy et al., 2013. The conditions noted are these: breast cancer cells, ref Toy et al., 2013; cited from earlier work.
The target in data set [8] is D538G ERα LBD (Homo sapiens, UniProt P03372, D538G, form not given). Format: binding. The conditions noted are these: for Kd: read-out: SRC-3 NRD Kd. Here is the method:
(§1) While bound to the Ni-NTA-agarose resin (Qiagen Inc., Santa Clarita, CA), the ERs were labeled with MAL-dPEG4-biotin (Quanta BioDesign, Powell, OH), site-specifically at C417. The SRC3-NRD construct has 4 cysteines and was labeled non-specifically, also while on the resin, with 5-iodoacetamido fluorescein (Molecular Probes, Invitrogen, Eugene, OR).
(§2) Diffusion-enhanced FRET was determined by a parallel incubation without biotinylated ER-LBD and subtracted as a background signal. […] The data, representing 2–3 replicate experiments, each with duplicate points, were analyzed using GraphPad Prism 4 and are expressed as the EC50 in nM.

For data set [9], the target named is WT ERα LBD (Homo sapiens, UniProt P03372). Format: binding. The conditions noted are these: for SRC-3 NRD Kd: WT apo (absence of E2). As to the method: as §1, §2
Data set [10] concerns the target Y537S ERα LBD (Homo sapiens, UniProt P03372, Y537S, form not given). Format: binding. The conditions noted are these: for Kd: read-out: SRC-3 NRD Kd. As to the method:
as §1, §2

Data set [11] concerns the molecule itself. The data set is described as follows: crystal structure; D538G ERα LBD with 1 mM E2 and a 2.5-fold molar excess of GRIP peptide; hanging drop, 25% PEG 3,350, 200 mM MgCl2, 100 mM Tris pH 8.5, 1 mM phenylalanine.

Read-outs that look alike come from different tables or passages of the source.

Regarding “steroid receptor coactivator 3 nuclear receptor domain (amino acids 627–829), fluorescein-labelled (from UniProt Q9Y6Q9 627-829) (domain or fragment)”, the Kd (commonly the equilibrium constant for the complex coming apart) in data set [1] is 3.65 nM; in data set [2], 0.59 nM; in [3], 2.67 nM; in data set [4] it was 151 nM; in data set [5] it was 13.6 nM.
Turning to `CC/C(=C(\c1ccc(O)cc1)c1ccc(OCCN(C)C)cc1)c1ccccc1` [TOT, 4-hydroxytamoxifen], the “ablation of transcriptional activity of the mutant” value in [6] and in data set [7] was “could not” throughout.
Turning to `C[C@]12CC[C@@H]3c4ccc(O)cc4C[C@@H](CCCCCCCCC[S+]([O-])CCCC(F)(F)C(F)(F)F)[C@H]3[C@@H]1CC[C@@H]2O` (stereo partly shown) [fulvestrant], the “ablation of transcriptional activity of the mutant” value in data set [6] and in data set [7] was “completely ablate” in each case.

B1: SRC3 NRD: steroid receptor coactivator 3 nuclear receptor domain, human, amino acids 627–829, fluorescein labeled (protein)
chain: CSSDDRGHSSLTNSPLDSSCKESSVSVTSPSGVSSSTSGGVSSTSNMHGSLLQEKHRILHKLLQNGNSPAEVAKITAEATGKDTSSITSCGDGNVVKQEQLSPKKKENNALLRYLLDRDDPSDALSKELQPQVEGVDNKMSQCTSSTIPSSSQEKDPKIKTETSEEGSGDLDNLDAILGDLTSSDFYNNSISSNGSHLGTKQQ
modifications: 5-iodoacetamido fluorescein on cysteines, non-specific (4 cysteines; an average of 1.8–2 fluorescein molecules attached); left off: His tag (inferred from the labelling on the resin), end not stated,
Consider B1, for which the Kd in data set [8] (D538G apo (absence of E2)) was 151 ± 20 nM; in data set [8] (D538G pre-saturated with E2 (1 µM ligand)) it was 3.65 ± 0.4 nM; in [9] (WT saturated with E2 (1 µM ligand), read-out: SRC-3 NRD Kd) it was 2.67 ± 0.5 nM; in data set [10] (Y537S apo (absence of E2)), 13.6 ± 2 nM; in data set [10] (Y537S pre-saturated with E2 (1 µM ligand)) it was 0.59 ± 0.1 nM. Besides, the “SRC3 binding curve plateau, of the maximum” value in data set [8] (D538G, absence of E2) is reported as “approximately 60%”; in data set [10] (Y537S, absence of E2), “approximately 60%”. Also, the “SRC-3 NRD Kd” value was “no binding was detected” in data set [9] and “No Recruitment” in data set [9] (listed as SRC-3 NRD).

B2: ERα LBD D538G mutant (crystallisation construct, 6×His-TEV tag removed) (domain or fragment, human)
chain: KRSKKNSLALSLTADQMVSALLDAEPPILYSEYDPTRPFSEASMMGLLTNLADRELVHMINWAKRVPGFVDLTLHDQVHLLECAWLEILMIGLVWRSMEHPGKLLFAPNLLLDRNQGKCVEGMVEIFDMLLATSSRFRMMNLQGEEFVCLKSIILLNSGVYTFLSSTLKSLEEKDHIHRVLDKITDTLIHLMAKAGLTLQQQHQRLAQLLLILSHIRHMSNKGMEHLYSMKCKNVVPLYGLLLEMLDAHRLHAPTS
notes: Unresolved residues were not included in the deposited structures; also called apo D538G; D538G-E2; source: E. coli BL21 (DE3), purified (Ni-NTA, TEV cleavage, Resource Q ion exchange)
On to B2, for which the binding result in data set [11] was “binds”.
